Results taken from patent US20220112288A1 (published 2022).

Columns and labels:
[1] = target: T1, human CD4 on cells (SKW3 cells; human PBMCs) (human, UniProt P01730 26-458); test: FACS confirmation, supernatant on human PBMCs, anti-mouse Fc 647, CD4+ gate
T1 construct: whole, on cells; SKW3 CD4 knockout cells served as the negative cell line; also called hCD4

[2] = target: T1, human CD4 on cells (SKW3 cells; human …); test: FACS primary screen, non-clonal hybridoma supernatant, SKW3 vs SKW3 CD4 knockout cells, anti-human kappa FITC
huCD4-HIS [3] = target: T2, huCD4-HIS (human, UniProt P01730 26-390, limits assumed); test: ELISA binning, competitor Ibalizumab; 100 ng/mL huCD4-HIS, anti-HIS HRP detection; background 45, max binding 3000000
T2 construct: the ELISA binning is not described in the text of this stretch

[4] = target: T1, human CD4 on cells (SKW3 cells; human …); test: FACS binning on SKW3 cells pre-incubated with supernatant; competitor OKT4-A488, its signal read; background 2163, max binding 8200
[5] = target: T1, human CD4 on cells (SKW3 cells; human …); test: FACS primary screen, non-clonal hybridoma supernatant, SKW3 vs SKW3 CD4 knockout cells, anti-mouse Fc A647
[6] = target: T1, human CD4 on cells (SKW3 cells; human …); test: FACS confirmation, supernatant on SKW3 WT cells, anti-mouse Fc 647; background gMFI 3300
[7] = target: T1, human CD4 on cells (SKW3 cells; human …); test: FACS confirmation, supernatant on SKW3 WT cells, anti-human kappa FITC; background gMFI 2500
[8] = target: T1, human CD4 on cells (SKW3 cells; human …); test: FACS binning on SKW3 cells pre-incubated with supernatant; competitor RPA-T4-PE-Dazzle 594, its signal read; background 783, max binding 15000
[9] = target: T1, human CD4 on cells (SKW3 cells; human …); test: FACS confirmation, supernatant on human PBMCs, anti-mouse Fc 647, CD4+ percent of viable cells
[10] = target: T1, human CD4 on cells (SKW3 cells; human …); test: FACS binning on SKW3 cells pre-incubated with supernatant; competitor OKT4a read with anti-human A647 secondary; background 5000, max binding 35000
[11] = target: T3, human CD4 on the surface of SKW3 cells or human PBMCs (human, UniProt P01730 26-458); test: FACS binning on SKW3 cells; competitor RPA-T4-PE-Dazzle 594 (its signal read); background 783, max binding 15000
T3 construct: whole, on cells; SKW3 CD4 knockout cells served as the negative cell line; also called hCD4; SKW3 WT

huCD4-HIS [12] = target: T4, huCD4-HIS (human, UniProt P01730 26-390, limits assumed); test: ELISA binning; competitor ibalizumab; 100 ng/mL huCD4-HIS, anti-HIS HRP detection; background 45, max binding 3000000
T4 construct: not shown: HIS tag

[13] = target: T3, human CD4 on the surface of SKW3 cells …; test: FACS binning on SKW3 cells; competitor OKT4a, anti-human A647 secondary (its signal read); background 5000, max binding 35000
[14] = target: T3, human CD4 on the surface of SKW3 cells …; test: FACS confirmation, supernatant on human PBMCs, anti-mouse Fc A647
[15] = target: T3, human CD4 on the surface of SKW3 cells …; test: FACS confirmation, supernatant on human PBMCs, anti-mouse Fc A647, CD4+ gate
[16] = target: T3, human CD4 on the surface of SKW3 cells …; test: FACS primary screen, non-clonal hybridoma supernatant, SKW3 vs SKW3 CD4 KO cells, anti-human kappa FITC
[17] = target: T3, human CD4 on the surface of SKW3 cells …; test: FACS confirmation, supernatant on SKW3 WT cells, anti-human kappa FITC; background gMFI 2500
[18] = target: T3, human CD4 on the surface of SKW3 cells …; test: FACS confirmation, supernatant on SKW3 WT cells, anti-mouse Fc A647; background gMFI 3300
[19] = target: T3, human CD4 on the surface of SKW3 cells …; test: FACS binning on SKW3 cells; competitor OKT4-Alexa Fluor 488 (its signal read); background 2163, max binding 8200
[20] = target: T3, human CD4 on the surface of SKW3 cells …; test: FACS primary screen, non-clonal hybridoma supernatant, SKW3 vs SKW3 CD4 KO cells, anti-mouse Fc A647

Row | Binder | PBMCs, anti-mFc 647 CD4+ gate - RL1 Binding [1] | SKW3 WT vs KO anti-hKappa-FITC [2] | Ibalizumab ELISA binning signal (huCD4-HIS [3]) | SKW3 FACS Binning OKT4 A488 [4] | SKW3 WT vs KO anti-mFc-647 [5] | SKW3 WT anti-mFc 647, gMFI [6] | SKW3 WT anti-hu Kappa FITC, gMFI [7] | SKW3 FACS Binning RPA-T4-PE-Dazzle 594 [8] | SKW3 FACS Binning OKT4a anti-hu A647 Secondary [10] | RPA-T4-PE-Dazzle 594 signal [11] | Ibalizumab ELISA binning signal (huCD4-HIS [12]) | OKT4a anti-hu A647 Secondary signal [13] | PBMCs, anti-mFc 647 CD4+ gate - RL1 Binding [15] | SKW3 WT vs KO anti-hKappa-FITC [16] | SKW3 WT anti-hu Kappa FITC, gMFI [17] | SKW3 WT anti-mFc 647, gMFI [18] | OKT4 A488 signal [19] | SKW3 WT vs KO anti-mFc-647 [20] | PBMCs, anti-mFc 647 CD4+ Percent Bound of Viable [9] | PBMCs, anti-mFc 647 CD4+ Percent Bound of Viable [14]
1 | 75110_01D24A (antibody, V domains shown, Tested as non-clonal AlivaMab Mouse Kappa hybridoma supernatant: human variable domains and human kappa, mouse Fc) VH: QVQLQQWGAGLLKPSETLSLTCAVYGGSFSGYYWSWIRQPPGKGLEWIGEINHSGSTNYNPSLKSRVTISVDTSENQFSLKLNSVTAADTAVYYCARLVNWFDPWGQGTLVTVSS VL: EIQMTQSPSSVSASVGDRVTITCRASQDISNWLAWYQQKPGKAPNLLIFAASSLQTGVPSRFSGSGSGTDFTLTISSLQPDDFATYYCQQANSFPYSFGQGTNLGIK | 257000 | 2.5 fold | 20300 | 11100 | 6.8 fold | 25000 gMFI | 5520 gMFI | 15200 | 5320 |  |  |  |  |  |  |  |  |  | 31% | 
2 | 75110_11D03A (antibody, V domains shown, Tested here as non-clonal hybridoma supernatant from AlivaMab Mouse Kappa mice (detected with anti-mouse Fc and anti-human kappa)) VH: EVQLVESGGGLVQPGGSLRLSCAASGFTFSSYWMSWVRQAPGKGLEWVANINQDGNEKYYVDSVKGRFTISRDNAKNSLFLQMNSLRAEDTAVYYCAREGGQWLALDYWGQGALVTVSS VL: DIQMTQSPSSVSASVGDRVTITCRASQGISSWLAWYQQKPGKAPKFLISGASSLQSGVPSRFSGSGSGTDFTLTISSLQPEDFATYYCQQANSFPWTFGQGTKVEIK |  |  |  |  |  |  |  |  |  | 13100 | 1.63e+06 | 43700 | 190000 | 1 ratio | 4000 gMFI | 21100 gMFI | 4180 | 2.6 ratio |  | 29%
3 | 75110_01A06A (antibody, V domains shown, Tested here as non-clonal hybridoma supernatant from AlivaMab Mouse Kappa mice (detected with anti-mouse Fc and anti-human kappa)) VH: EVQLVESGGGLVQPGGSLRLSCAASGFTFSSYWMSWVRQAPGKGLEWVANINEDGNEKYYVDSVKGRLTISRDNAKNSLYLQMNSLRAEDTAVYFCAREGGQWLSLDYWGQGALVTVSS VL: DIQMTQSPSSVSASVGDRVSITCRASQGISSWLAWYQQKPGKAPKILIYGASSLQSGVPSRFSGSGSGTDFTLTISSLQPEDFATYYCQQANSFPWTFGQGTKVEIK |  |  |  |  |  |  |  |  |  | 14700 | 1.26e+06 | 43700 | 321000 | 2.4 ratio | 5930 gMFI | 32300 gMFI | 2140 | 7.5 ratio |  | 31%
4 | 75110_02I16A (antibody, IgG1, V domains shown, Tested as non-clonal AlivaMab Mouse Kappa hybridoma supernatant: human variable domains and human kappa, mouse Fc; also called 75110_02116A) VH: QVQLQQWGAGLLKPSETLSLTCDVYGGSFSGYYWTWIRQPPGKGLEWIGEINHSGTTNSNPSLKSRVTISVDTSKSQFSLRLSSVTAADTAVYFCTRELNWFDPWGQGTLVTVSS VL: DIQMTQSPSSVSASVGDRVTITCRASQDIANWLAWYQQKPGKAPQLLIYAASSLLGGVPSRFSGSGSGADFTLTISSLHPEDFATYYCQQANSFPYTFGQGTKLEIK | 218000 | 1.7 fold | 823000 | 9810 | 3 fold | 19400 gMFI | 5740 gMFI | 2590 | 30700 |  |  |  |  |  |  |  |  |  | 29% | 
5 | 75110_04G16A (antibody, V domains shown, Tested as non-clonal AlivaMab Mouse Kappa hybridoma supernatant: human variable domains and human kappa, mouse Fc) VH: QVQLQESGPGLVKPSQTLSLTCTVSGDSISSGYYYWSWIRQHPGKGLEWIGYISYSGSTYYNPSLKSRLTISVNTSKNQFSLKLSSLTAADTAVYYCARDRPSNFDAFDIWGQGTMVTVSS VL: EIVLTQSPGTLSLSPGERATLSCRASQSVGSTYLAWYQQKPGQAPRLLIYGAFSRATGIPDRFSGSGSGTDFTLTISRLEPEDFAVYYCQQYGSSPLTFGPGTKVDIK | 255000 | 2.3 fold | 52600 | 9640 | 6.3 fold | 32500 gMFI | 6830 gMFI | 13500 | 6740 |  |  |  |  |  |  |  |  |  | 32% | 

Now from value to binder, other results behind:

Row | PBMCs, anti-mFc 647 CD4+ gate - RL1 Binding [1] | SKW3 WT vs KO anti-hKappa-FITC [2] | Ibalizumab ELISA binning signal (huCD4-HIS [3]) | SKW3 FACS Binning OKT4 A488 [4] | SKW3 WT vs KO anti-mFc-647 [5] | SKW3 WT anti-mFc 647, gMFI [6] | SKW3 WT anti-hu Kappa FITC, gMFI [7] | SKW3 FACS Binning RPA-T4-PE-Dazzle 594 [8] | SKW3 FACS Binning OKT4a anti-hu A647 Secondary [10] | RPA-T4-PE-Dazzle 594 signal [11] | Ibalizumab ELISA binning signal (huCD4-HIS [12]) | OKT4a anti-hu A647 Secondary signal [13] | PBMCs, anti-mFc 647 CD4+ gate - RL1 Binding [15] | SKW3 WT vs KO anti-hKappa-FITC [16] | SKW3 WT anti-hu Kappa FITC, gMFI [17] | SKW3 WT anti-mFc 647, gMFI [18] | OKT4 A488 signal [19] | SKW3 WT vs KO anti-mFc-647 [20] | Binder | PBMCs, anti-mFc 647 CD4+ Percent Bound of Viable [9] | PBMCs, anti-mFc 647 CD4+ Percent Bound of Viable [14]
6 | 206000 | 1.8 fold | 1.73e+06 | 9940 | 2.9 fold | 22000 gMFI | 6360 gMFI | 2420 | 31300 |  |  |  |  |  |  |  |  |  | 75110_07E04A (antibody, IgG1, V domains shown, Tested as non-clonal AlivaMab Mouse Kappa hybridoma supernatant: human variable domains and human kappa, mouse Fc) VH: EVQLVESGGGLVQPGGSLRLSCAVSGFTFSSYDMHWVRQATGKGLEWVSTIGTAGDTYYPGSVKGRFTISRENAKKFLYLQMNSLRAGDTAVYYCARGGYYYYGMDVWGQGTTVTVSS VL: not shown | 30% | 
7 | 187000 | 2.8 fold | 710000 | 9340 | 4.6 fold | 24000 gMFI | 7520 gMFI | 20300 | 6110 |  |  |  |  |  |  |  |  |  | 75110_14P05A (antibody, V domains shown, Tested as non-clonal AlivaMab Mouse Kappa hybridoma supernatant: human variable domains and human kappa, mouse Fc) VH: EVQLVESGGGLVQPGGSLRLSCAASGFTFSSYDVHWVRQATGKGLEWVSTIGTAGDTYYPGSVKGRFTISRENAKNSLYLQMNSLRAGDTAVYYCARGGFYYYGMDVWGQGTTVTVSS VL: EIVLTQSPGTLSLSPGERATLSCRASQSVSSSYLAWYQQKPGQTPRLLIYGASSRATGIPDRFSGSGSGTDFTLTISRLEPEDFAVFYCQQSGSSPFTFGPGTKVDVK | 27% | 
